Experimental data published in patent US20250122271A1, “ANTI-DKK1 ANTIBODY, PHARMACEUTICAL COMPOSITION THEREOF, AND USE THEREOF” (SHANGHAI JUNSHI BIOSCIENCES CO., LTD., priority 2022, published 2025).
Like-named read-outs stand apart in the source and are kept apart here.

T1: human DKK1 antigen (Sino Biological, 10170-H08H) (human, UniProt O94907 32-266)
T1 chain: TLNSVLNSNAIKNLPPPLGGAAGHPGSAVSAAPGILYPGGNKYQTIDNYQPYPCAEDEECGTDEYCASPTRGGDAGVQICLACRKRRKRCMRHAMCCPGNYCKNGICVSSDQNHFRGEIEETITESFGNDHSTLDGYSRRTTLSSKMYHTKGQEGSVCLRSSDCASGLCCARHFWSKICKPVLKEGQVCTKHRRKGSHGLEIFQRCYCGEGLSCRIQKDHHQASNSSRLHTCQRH

T2: human DKK1 antigen (Sino Biological, 10170-H08H) (human, UniProt O94907 32-266)
T2 construct: also called huDKK1; hDKK1
T2 sequence (looked up): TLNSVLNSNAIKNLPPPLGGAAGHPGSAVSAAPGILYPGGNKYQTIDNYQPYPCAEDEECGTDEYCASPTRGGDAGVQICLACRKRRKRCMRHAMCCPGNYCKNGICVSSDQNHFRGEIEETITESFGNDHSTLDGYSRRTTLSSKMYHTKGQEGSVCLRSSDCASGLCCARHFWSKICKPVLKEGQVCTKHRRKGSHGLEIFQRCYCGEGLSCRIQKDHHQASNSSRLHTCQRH

B1: humanized antibody hu2 (antibody, V domains shown)
VH: EVQLLQSAAEVKRPGESLRISCKTSGYTFTEYTMHWVRQMPGKELEWMGVIDPSNGDTSYNQKFKGHVTISADKSSSTAYLQWSSLKASDAAMYYCSSTTGPWFASWGQGTLVTVSS
VL: DIQMTQSPSSLSASVGDRVTITCRASQDISNYLNWYQQKPGKAPKLLIYYKSRLHSGVPSRFSGSGSGTDFTLTISSLQPEDFATYYCQQVHTLPPTFGQGTKLEIKR
B2: humanized antibody hu64 (antibody, V domains shown)
VH: QVQLVQSGAEVKKPGSSVKVSCKASGYTFTSYNMLWVRQAPGQGLEWMGVIFPGNGDTSYNPKFKGRVTLTADKSSSTAYMELSSLRSEDTAVYYCARDGYPSMDYWGQGTLVTVSS
VL: DTQLTQSPSFLSASVGDRVTITCITSTDIDDDMNWYQQKPGKAPKLLISEGNSLRPGVPSRFSSSGSGTEFTLTISSLQPEDFATYYCLQFNNMPLTFGQGTKLEIKR
B3: humanized antibody hu52 (antibody, V domains shown)
VH: QVQLVQSGAEVKKPGASVKVSCKASGYTFTSYNMLWVRQAPGQRLEWMGVIFPGNGDTSYNPKFKGRVTLTADKSSSTAYMELSSLRSEDTAVYYCARDGYPSMDYWGQGTLVTVSS
VL: DTQLTQSPSFLSASVGDRVTITCITSTDIDDDMNWYQQKPGKAPKLLISEGNSLRPGVPSRFSSSGSGTEFTLTISSLQPEDFATYYCLQFNNMPLTFGQGTKLEIKR
B4: humanized antibody hu50 (antibody, V domains shown)
VH: QVQLVQSGAEVKKPGASVKVSCKASGYTFTSYNMLWVRQAPGQRLEWMGVIFPGNGDTSYNPKFKGRVTLTADKSSSTAYMELSSLRSEDTAVYYCARDGYPSMDYWGQGTLVTVSS
VL: DIQMTQSPSSVSASVGDRVTITCITSTDIDDDMNWYQQKPGKAPKLLISEGNSLRPGVPSRFSGSGSGTDFTLTISSLQPEDFATYYCLQFNNMPLTFGQGTKLEIKR
B5: hybridoma antibody 11I18.4 (antibody, V domains shown)
VH: EVQLQQSGPELVKPGASVKIFCKTSGYTFTENTMHWVKQTHGKSLEWIGGINPHKGGTSYNQKFKGKATLTVDKSSSTACMELRSLTSEDSTVYYCARDWLGAMDYWGQGTSVTVSP
VL: ETTVTQSPASLSMAIGEKVTIRCITSTDIDDDMNWYQQKPGEPPKLLISEGNTLRPGVPSRFSSSGYGTDFVFTIENMLSEDVADYYCLQSDNLPYTFGGGTKLEIK
notes: Murine hybridoma antibody
B6: hybridoma antibody 19O15.6 (antibody, V domains shown)
VH: QIQLVQSGPELKKPGETVKISCKASGYTFTNHGMNWVKQAPGKGLKWMGWINTNTGEPTYADDFKGRFAFSLETSASTAYLQINNLKNEDTATYFCARRGYGFPYYYTMDYWGQGTSVTVSS
VL: QAVVTQESALTTSPGETVTLTCRSSTGAVTTRNYANWVQEKADHLLTGLIGGTKNRAPGVPARFSGSLIGDKAALTITGAQTEDEAKYFCALWYSNRLVFGGGTKLTVL
notes: Murine hybridoma antibody
B7: chi-22 (antibody, V domains shown)
VH: QVTLKESGPGILQPSQTLSLTCSFSGFSLSTSGMGVGWIRQPSGKGLEWLAHIWWDDVKRYNPALKSRLTISKDTSSSQVFLKIASVDTTDTASYYCSRIARSPTGFAYWGQGTL
VL: QIVLTQSPVIMSASPGEKVTMTCSASSSVSYMYWYQQKPGSSPRLLIYDTSNLASGVPVRFSGSGSGTSYSLTISRMEAEDAATYYCQQWSSYPPALTFGAGTKLELK
B8: chi-29 (antibody, V domains shown)
VH: QVQLKQSGPGLVQPSQSLSITCTVSGFSLTAFDVHWVRQSPGKGLEWLGVIWIGGTTDYNGAFISRLSISKDNSKSQVFFKMNSLQAKDTAIYYCARKRGNYYNMDYWGQGTSVTVAS
VL: SQAVVTQESALTTSPGETVTLTCRSSTGTVTTTNYANWVQEKPDHLFTGLIGGTNNRAPGVPARFSGSLIGDKAALTITGAQTEDEAIYFCALWYSNHWVFGGGTKLTVL
B9: chi-2 (antibody, V domains shown)
VH: EVQLQQSGPELVKPGASVKIFCKTSGYTFTENTMHWVKQTHGKSLEWIGGINPHKGGTSYNQKFKGKATLTVDKSSSTACMELRSLTSEDSTVYYCARDWLGAMDYWGQGTSVTVSP
VL: MSSAQFLGLLLLCFQGTRCDIQMTQTTSSLSASLGDRVTINCRASQDISNYLNWYQQKPDGTVKLLIYYKSRLHSGVPTRFSGSGSGTDFSLTISNLVQEDIATYFCQQVHTLPPTFGGGTKLEIK
B10: BHQ-880 (antibody, V domains shown)
VH: QVQLVESGGGLVQPGGSLRLSCAASGFTFSSYWMSWVRQAPGKGLEWVSGISYSGSNTHYADSVKGRFTISRDNSKNTLYLQMNSLRAEDTAVYYCARMGIDLDYWGQGTLVTVSS
VL: DIALTQPASVSGSPGQSITISCTGTSSDVGGFNYVSWYQQHPGKAPKLMIHDGSNRPSGVSNRFSGSKSGNTASLTISGLQAEDEADYYCQSWDVSPITAVFGGGTKLTVLG
B11: hybridoma antibody 17F14.3 (antibody, V domains shown)
VH: QVQLQQPGAELVKPGASVKMSCKASGYTFTSYNMLWVKQTPGQGLEWIGVIFPGNGDTSYNPKFKGKAALTADKSSSTAYMQLSSLTSEDSAVYYCARDGYPSMDYWGQGTSVTVSS
VL: ETIVTQSPASLSVATGEKVTIRCITSTDIDDDMNWYQQKPGEPPKLLISEGNSLRPGVPSRFSSSGYGTDFVFTIENTLSEDVADYYCLQFNNMPLTFGAGTKLELK
notes: Murine hybridoma antibody
B12: hybridoma antibody 7M2.6 (antibody, V domains shown)
VH: EVQLQQSGPELVKPGASVRISCKTSGYTFTEYTMHWVKQSHGKSLEWIGVIDPSNGDTSYNQKFKGRATLTVDKSSSTAYMDLRSLTSEDSALYYCSSTTGPWFACWGQGTLVTVSA
VL: DIQMTQTTSSLSASLGDRVTINCRASQDISNYLNWYQQKPDGTVKLLIYYKSRLHSGVPTRFSGSGSGTDFSLTISNLVQEDIATYFCQQVHTLPPTFGGGTKLEIK
notes: Murine hybridoma antibody
B13: humanized antibody hu3 (antibody, V domains shown)
VH: EVQLLQSAAEVKRPGESLRISCKTSGYTFTEYTMHWVRQMPGKELEWMGVIDPSNGDTSYNQKFKGHVTISADKSSSTAYLQWSSLKASDAAMYYCSSTTGPWFASWGQGTLVTVSS
VL: EIVMTQSPPTLSLSPGERVTLSCRASQDISNYLNWYQQKPGQAPRLLIYYKSRLHSGIPARFSGSGSGTDFTLTISSLQPEDFAVYYCQQVHTLPPTFGQGTKLEIKR
B14: hybridoma antibody 18J21.1 (antibody, V domains shown)
VH: QVQLKQSGPGLVQPSQSLSITCTVSGFSLTAFDVHWVRQSPGKGLEWLGVIWIGGTTDYNGAFISRLSISKDNSKSQVFFKMNSLQAKDTAIYYCARKRGNYYNMDYWGQGTSVTVAS
VL: QAVVTQESALTTSPGETVTLTCRSSTGTVTTTNYANWVQEKPDHLFTGLIGGTNNRAPGVPARFSGSLIGDKAALTITGAQTEDEAIYFCALWYSNHWVFGGGTKLTVL
notes: Murine hybridoma antibody

Legend:
[1] = target: T1, human DKK1 antigen (Sino Biological, …); assay: ELISA blocking of DKK1-LRP6
[2] = target: T1, human DKK1 antigen (Sino Biological, …); assay: ELISA binding
[3] = target: T2, human DKK1 antigen (Sino Biological, …); assay: competitive ELISA against LRP6 for DKK1
[4] = target: T1, human DKK1 antigen (Sino Biological, …); assay: ELISA blocking of DKK1-LRP6
[5] = target: T1, human DKK1 antigen (Sino Biological, …); assay: ELISA blocking of DKK1-LRP6

Row | Binder | IC50 [1] [µg/mL] | EC50 [2] [µg/mL] | binding result [3] | IC50 [4] [µg/mL] | further results
1 | B1 | 0.193 | 0.01 |  |  | 
2 | B2 | 0.176 | 0.0222 |  |  | 
3 | B3 | 0.155 | 0.0238 |  |  | 
4 | B4 | 0.239 | 0.0234 |  |  | 
5 | B5 |  |  | binds | 0.459 | 
6 | B6 |  |  | binds | ~10.1 | 
7 | B7 |  |  |  |  | IC50 [5]: ~0.246 µg/mL
8 | B8 |  |  |  |  | IC50 [5]: 1.43 µg/mL
9 | B9 |  |  |  |  | IC50 [5]: 1.79 µg/mL
10 | B10 |  |  |  | 1.1 | 
11 | B11 |  |  | binds | 0.529 | 
12 | B12 |  |  | binds | 0.892 | 
13 | B13 | 0.169 | 0.0138 |  |  | 
14 | B14 |  |  | binds |  | 
